Assay: soluble on expression in E. coli; label from the status in PepcDB or PDB records

| Sequence | soluble on expression in E. coli |
| --- | --- |
| MPSVFEAKGLPSLGPPVSNWGTNQPGTGVARNTRREKLGLWSAVALQQHFTATGGRGGLPLPLSSSALPSQEDRGTAAALGDNAGFSSGAVSSDLRSHLGPAPSLAGRLHKPTLAQRMGLVPGPTPPPSADDWRVITHRALQREHRHARDAGSPGANPSICPICQMSYSTNCDEGQVILSCSHVFHARCFRSFERYVRAQQRADALRIGEVSAPLACPVCRTQSYYKRIFYEGKAVAQRAAIVKVQAAVRGLLARRAYIKIKLQNNPEFRTRYVQERLARLSAAWQTFCAEQEQRRAGLQTALTVQQEMARAAFLSEEAWAEIWRKAVHGPSTSSEPGSSAAPSTAGASVQCPICLELIHCSQCPGTGAAASHAGGVRRLTGKDAVAAMWAAYEARKVAKRLPSVEPKAARASAGALVRSAVKGAAQRKTGNSLTPMPGAVASVRDGKVASSRAPEHRAGRQKGFAQPTAAAPWPEHANAFAALSSAPGVDAVGAHEAAVVLPQSGILLSCGHCFHAACIDCYERFHERRCLDMVEQDGGAVVAFPSRCPVCRSGYAKHPM | not soluble |
| MPRVNIGPDNNAQIEITTLQSQSKSRKLKKIKMASGSERVVVVGVDDSAHSYHALETALDLFFIPFKANPRFKLVVLHARPTATFFLGVAGPGTVDIIPMVEEDLNKTADLVKKKCAEVCSAKSVEISSLEVIEGDPRNIMLEAVERHHA | soluble |
| MKCKKCGRKAVANLKAYGIALCEKCYPEFYRNLVKRSIKRFRILRPEERVLIAISGGKDSSALAAVLKELDYDAELLYIDLGIGNYSEESERVVRELSSSLDLSLNVVRLRDYGFTVDDVARKMRRKTCSACGTAKRYIMNRFARENSFDVVATGHTAEDIASFYIKNVAGGTRVWAEKLMPRNEPFDEKIVTRAKPLFEVSEKENMLYVLVNDIPHTLMECPHAPNPEWKEIVYDIERRKPGFVKNFVRGLVRPAEEFEETKYCKICGEVSSGDVCAFCRLRERLS | not soluble |
| MDADDLRQLAINVSMDDIAASRDATKRLQQLFTPQQIVAMLKDAPSTHALRVLVGEMEAVGNPDVFHLIGGVLEDVFTQPSRESKAVLFAPAAQFLVEFIVRSAAAADTAVASSMSKALHRLIAIAGDSTEAAAFLGPCLDANFHNEQVLRLFDCDAVESAENKTVCGFLEQWTSLLPFMFEATLDAFENDPLLQANYTIASGVACRTVDVPSALRQRTMDILRAKDDSLCFAYVCRFWSIALLRHEANGQRDAAACVSTVMPAAEASERDERATEAIFDLLGSAASTQAGWDAVTRQLPCKTLQVRLSSTSPSLRLSTLNLMLCMLTSPHMNVSFFTKDLLLDAWQTRTSPDDMVRLALWRVANAALLQESLNRMLGAACASFLSSGAHEENVAVRSLKLTAAERLLRHSTLPENVKARLSQVVERGLYPAGSSGVSLIAKD | not soluble |
| MATSLDRDKEAVLRALRPYLEGTGTRLFLFGSFARGEGRQASDLDLALLSPVPLKDLMPLLREALEEAPVVRRVDLVDLAEAEPAFRERVLREGVLWAEF | soluble |
| MSEIPTEVPVKTRKRTYDLKFKLHAINYALEHKNISKAAKDLNVNRQNIQQWIAQKAEIEKQLEDNGSTATKRLSGGGRPLKYDDVDKELIKWVHDQRKEKQRVTRRIIGETAKKISQNSDFKASRGWLDKFMCRHNLSTRRARTEPGDLMQTLVDILLRQTSSDDGEEDPMISFIKSCIPSGEDPLEGEDQAASSSVQVPKVLAEENGHESDSDQSIVDVND | not soluble |
| MPKVISQKEFNILSRTKERVNFQIVYTKQRNGLHKAAKEYFFKDKDFTIIEDTPDTPDQPDGPCITKGPKEPGGPEEPNGPDKPEDPKDPDTPDVSEGPKEQGGQKDPGGPDDPSEGKQKVSKPDKYVTHRELDEKLKDFATKADFKRVEDKVDVLFELQKTQGEQIKVQGEQIKAQGKQIEQLTETVKVQGEQIRAQGEQIKAQSEEIKEIKVEQKAQGEQIKELQVEQKAQGKTLQLILKTLEKMNERLEKLESK | soluble |
| SLNSLVSWQLLLFLCATHFGEPLEKVASVGNSRPTGQQLESLGLLAPGEQSLPCTERKPAATARLSRRGTSMSPPPESSGSPQQPGLSAPHSRQIPAPQGAVMVQREKDLPNYNWNSFGLRFGKREAAPGNHGRSAGR | soluble |
| SSEAKKGHVLFFPYPLQGHINPMIQLAKRLSKKGITSTLIIASKDHREPYTSDDYSITVHTIHDGFFPHEHPHAKFVDLDRFHNSTSRSLTDFISSAKLSDNPPKALIYDPFMPFALDIAKDLDLYVVAYFTQPWLASLVYYHINEGTYDVPVDRHENPTLASFPGFPLLSQDDLPSFACEKGSYPLLHEFVVRQFSNLLQADCILCNTFDQLEPKVVKWMNDQWPVKNIGPVVPSKFLDNRLPEDKDYELENSKTEPDESVLKWLGNRPAKSVVYVAFGTLVALSEKQMKEIAMAISQTGYHFLWSVRESERSKLPSGFIEEAEEKDSGLVAKWVPQLEVLAHESIGCFVSHCGWNSTLEALCLGVPMVGVPQWTDQPTNAKFIEDVWKIGVRVRTDGEGLSSKEEIARCIVEVMEGERGKEIRKNVEKLKVLAREAISEGGSSDKKIDEFVALLT | soluble |
| MSLATYETFAAVYDAVMDDTLYAKWTDFSLRHFPKGKKKLLELACGTGIQSVRFAQAGYAVTGLDLSGDMLKLAKKRATSAHQSIQFIEGNMLDLSNVGKYDLITCYSDSICYMQDEVEVGDVFIEVYKALEENGVFIFDVHSTYQTDKVFPGYSYHENADDFAMVWDTYEDDAPHSIVHELTFFVQEEDGRFTRHDEVHEERTYDILTYDILLEQAGFKDVKVYADFEDKKPTATSARWFFVAHKEGHHHHHH | soluble |
| MTKGKGRNPGASGLDKHLKRKTHLERSQPKSRQHLGQLEKHKDHVLRAKKRKVKVRRLQEIKRAAAQRNPDEFNIGMTKAVMDVANGRMRQRRVRLVESDRKKDMQTTIEHNRRNVQYLEFKAQADQQRATELLNEEAAAALTSTAPQNKHIVFVNSEEEFRSFNPLKHFDVTPEMMRQHPAVRGRIRVLEKTVMPEEILMSGGHQIKSAAQKRKERREVQEKMRRSGADATPETRAAFVERLRAKKELKQYQFTDLLEEVKRESEATASSSKGAPGDDGEQEEAAAQDEVTRLLEWRREQERQAAIATARHVREVGQRIQRSKSLSALAKSIRKQSQGIKRQMEQRRESRFKPGATRRAR | not soluble |
| MENIVNRTYTRIGQLLKQDISQGIYSIGDKLPTEREISEKFGVSRTIVREAMVMLEVEKLVEVKKGSGVYVVRTPESIHMEHSDLPDVGPFELLQARQLLESSIAEFAALQATKKDILNLKQILNREKELLTQNQDDYSADKDFHLALAEITQNDVLVKLQEQLWQYRFNSAMWAQLHSRILQNDYHHLWIEDHQTILSAIQKKNANEARKAMWQHLENVKVKLFELSDVEDPHFDGYLFNTNPVVVGI | not soluble |
| MATFKDFRNNVKPNWCPGCGDFSVQAAIQKAAANIGLEPEEVAIITGIGCSGRLSGYINSYGVHSIHGRALPLAQGVKMANKDLTVIASGGDGDGYAIGMGHTIHALRRNMNMTYIVMDNQIYGLTKGQTSPSSAVGFVTKTTPKGNIEKNVAPLELALSSGATFVAQGFSSDIKGLTKLIEDAINHDGFSFVNVFSPCVTYNKINTYDWFKEHLTSVDDIENYDSTDKQLATKTVIEHESLVTGIVYQDKETPSYESQIKELDDTPLAKRDIKITEDTFNALTEQFI | not soluble |
| VVTCATDGNHGRSVAWGAQMFGCGCIIYIHRDVSEGRKVAMEAFDAEVIRITGNYDESVRQAGADAKAHGRIIVSDTSYEGYMEVPKDVALGYTVMLAETVEQLDGEIPTHVFVQGGVGGLASAVAGYFWDLWGDRRPRFVVVEPEQANCLQLSAKAGEPVVVKGDLDTLMAGLACGEVSLLAWQILSNGADDFMTLSEDAIADTMSLLAKGYKGDPAIEAGESAVPGLAAAINARAQDTFAKALNLDAQSKVLVIGTEGAT | not soluble |
| MDADKDNIKQACDERSAEMDDMRGEQSMGLVHEIMSENKELDEEIKKLEAELQSDAREFQIKENVPEKKLKLTSVESPEDGCHFSNSSCSFQVSSQILYELQKGQALITFEKEEVAQNVISMGNHVVQMEGTPVKVSAHPVPLNTGVRFQVHVDISKMKINVTGIPDELSEEQTRDKLELSFCKSRNGGGEVESVDYDRKSRSAVITFVETGVVDKILKKKTYPLYMNQKCHSVAVSPCIERRLEKYQVFSAVSKKTVLLTGLEGIRVDEETGEDLLNIHFQRKNNGGGEVEVVKCSLDQSFAAYFKEEARETI | not soluble |
| MKYQLRAIDNQLDEMLQFSGAIAVEGVKGVGKTESAIRRSEHLLQLDRAGDRQLLEADPEFSSFSTGTILIDEWQRMPECWDFVRRGVDAQRTPGRFLLTGSATPQAGIDTHSGAGRILSIRMRPMALFERREHSATVSLADLFLGNAPISGTTDLTLNDYVSEIARSGFPGFNEQPQRAINVELDSYIERIVDRDLPEQGYNVRNRAGLLGWMRAYAAASSTTMSYSEILNAATPGESDKPARKTAALYRSKLTEIWMLDEVPAWDFVRSPLAGLAQAPKHQLADPAFVLRLLGVPANRLVTERYRHFLGPLFESLATLSVRVAAESQFGSVRHLRTRRGDHEVDLIASNQDGDLVAIEVKLTADVKNDDVAHLHWLKEQLPDDVVDMVVLTTGNRAYRRSDGVAVVPLALFGA | not soluble |
| MGSDKIHHHHHHNVYSLPANGGRLIGELQTHVVEKGDYFKTIADKYNIGILELMETNPGVDPFLPTPGTQLVIPTQMLLPDVPRKGIVINLPELRLYYFPKNGREVHVFPVGIGRIGRETPEMTTKIKARIPNPSWTPPASLRAEHLRERGEVLPPVVPAGPDNPLGKYAMQLSYGDGSYLIHGTNKDFGIGMRVSAGCIRLNPDDIEWLFHQAKYGDSVRVINQTVKIATEPDGRQIIEVHSPLSKTEDQPREKVISLSSKVVKFISQESVDNTKANDALLTQNGIPMVISHPPLTAAQDLEITP | not soluble |
| EANLKPENVEIHIIDDNFFLKWNSSSESVKNVTFSADYQILGTDNWKKLSGCQHITSTKCNFSSVELENVFEKIELRIRAEEGNNTSTWYEVEPFVPFLEAQIGPPDVHLEAEDKAIILSISPPGTKDSIMWAMDRSSFRYSVVIWKNSSSLEERTETVYPEDKIYKLSPEITYCLKVKAELRLQSRVGCYSPVYCINTTERHKVPSPENIQINADNQIYVLKWDYPYENATFQAQWLRAFFKKIPGNHSDKWKQIPNCENVTSTHCVFPREVSSRGIYYVRVRASNGNGTSFWSEEKEFNTEMKTIIFPPVISVKSVTDDSLHVSVGASEESENMSVNQLYPLIYEVIFWENTSNAERKVLEKRTNFIFPDLKPLTVYCVKARALIENDRRNKGSSVSDTVCEKTKPGNTSK | not soluble |
| MGSDKIHHHHHHMVNEELLWVLWQHLLFSVESLHTTTGEPIIIKHTGTLNVHAGPDFSLAKLCIDGIEWAGDVEIHTKASDWYKHKHQHNPAYESVILHVVYEADIDITRADGSCIPVLELKDRIHTMHLETYGYLMEEKKTVPCAHAIHEIPAIVMEQMKQRVLIERLERKTDGLFQLLTDQPNWKMIAGRLIFKSFGTGLNDYLFERMAQQMDFNKLDRLSYAPKSIEALFFGCSGMLEKDWADDFPAALKKEYTYLQRTQTVTCTIDSSEWKFLRTRPVNFPTIRLAQLAALFSNTDWYASFSSITSVKYAEDFLNVSLSDYWLNHYRFDVLSKPAPKHIGKTFANTFLLNAYIPFLVLHARYYKNETTWEQVFEMLDTIQAEDNAITRVWKELGIRMDTGFDSQSGLELYKMYCTHKKCLSCSIGFSILRNASVSAVVK | not soluble |
| MRSSNNRHEGEEAMNRTQQWMEDLQKNISDLIARSPAADVERNVRAMMTQTFARLDLITREEFEVQVDLLARARTRVDQLSAQVQQLEARLAALEAGKPQA | not soluble |

From the DeepSol protein solubility set
